T1: Human CD79b (AA 29-159)-6-His (Homo sapiens, UniProt P40259)
T1 construct: 6-His (C)
T1 sequence (P40259 29-159): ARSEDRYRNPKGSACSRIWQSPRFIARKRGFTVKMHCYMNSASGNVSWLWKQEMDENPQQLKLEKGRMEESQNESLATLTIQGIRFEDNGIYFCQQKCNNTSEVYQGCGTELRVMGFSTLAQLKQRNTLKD

T2: Human CD79b (AA 29-159)-6-His (human, UniProt P40259 29-159)
T2 construct: range 29-159; No linker between CD79b and the tag is stated
T2 sequence: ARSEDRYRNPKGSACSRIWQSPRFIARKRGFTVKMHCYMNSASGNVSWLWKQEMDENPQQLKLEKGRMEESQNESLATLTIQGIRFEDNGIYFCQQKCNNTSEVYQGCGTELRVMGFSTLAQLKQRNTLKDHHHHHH

B1: ADC-1 (antibody, human IgG1, kappa, V domains shown)
VH: EVQLVESGGGLVQPGGSLRLPCAASGFTFYNYWITWIRQAPGKGLEWVANINQAGSEKSYLDAVKGRFTISRDNAKNSVYLQMNSLRVEDTAVYYCAGGFRAFDIWGQGTMVTVSS
VL: DFVLTQSPLSLSVTPGEPASISCRSSQSLLHSSGESYLDWFLQRPGQSPQVLIYLGSHRASGAPDRFSGSGSGTDFTLKISRVEAEDVGVYYCMQALQTPLTFGGGTRVEIKR
modifications: Top1i linker drug LD1 (formula III) linked via sulfhydryl groups of cysteine residues; n is 6 for the whole antibody (DAR = 6.05); conjugated positions and split between the chains not stated
notes: Antibody drug conjugate of Ab1 (IgG1, human kappa); also called anti-CD79b Top1i ADC; anti-CD79b ADC of formula (IV) with Ab1, n is 6

Legend:
[1] = test system: DLBCL GCB CDX (OCI Ly19) Tumors; assay: In vivo growth inhibition of xenografted tumors
Text: Based on an endpoint of 1000 mm3.

[2] = target: T1, Human CD79b (AA 29-159)-6-His; assay: Binding affinity to recombinant human CD79b (ka, kd, KD)
Text: The binding ligand used in the assay was recombinant human CD79b having the amino acid sequence of Ala29-Asp159 of human CD79b, which was fused with a 6-His tag at the C terminus. Table 3 provides the measured association rate (ka), dissociation rate (kd), and equilibrium dissociation constant (KD). Table 3: Binding Affinity

[3] = target: T2, Human CD79b (AA 29-159)-6-His; assay: kinetic binding assay, method not named; recombinant human CD79b (29-159)-6-His

| Molecule | tumor growth inhibition and tumor growth delay ([1]; FIG. 2, compared to vehicle controls, all dose levels tested) | CR (%) ([1]; dose 3x, control Vehicle) | PR (%) ([1]; dose 3x, control Vehicle) | TR (%) ([1]; dose 3x, control Vehicle) | TGD (%) ([1]; dose 3x, control Vehicle, end of study) | CR (%) ([1]; dose 3x, control Vehicle, listed as polatuzumab vedotin-piiq) | TGI (%) ([1]; dose 3x, single bolus intraperitoneally on day zero, control Vehicle, day 10 post dosing) | ka ([2]; association rate) [M⁻¹ s⁻¹] | kd ([2]; dissociation rate) [s⁻¹] | Kd ([2]; equilibrium dissociation constant) [nM] | Kd [3] [nM] | koff [3] [s⁻¹] | kon [3] [M⁻¹ s⁻¹] |
| --- | --- | --- | --- | --- | --- | --- | --- | --- | --- | --- | --- | --- | --- |
| Polatuzumab vedotin-piiq | statistically significant | No CRs | 0 | 0 | 90 | 0 | 84 | 1.7e+07 | 0.0087 | 5 |  |  |  |
| Polatuzumab vedotin-piiq (antibody) |  |  |  |  |  |  |  |  |  |  | 5 | 0.0087 | 1.7e+07 |
| B1 |  |  |  |  |  |  |  |  |  |  | 4 | 0.00068 | 170000 |

Reference: patent EP4670742A1, “ANTI-CD79B ANTIBODY DRUG CONJUGATES” (priority 2024, dated 2025)
